Experiments:
[1] = Release of proteins from nanotubes into PBS (Micro-BCA); format: physicochemical; parameters: time point at which all the protein is released from the nanotubes: unit: min; conditions: for time point at which all the protein is released from the nanotubes: PBS, room temperature, 70 rpm
Protocol: In order to release the proteins from the nanotubes, the surfaces were immersed in 500 μl of PBS in a 24-well plate at room temperature with orbital shaking at 70 rpm. 200 μl of samples were taken after specific intervals of time to determine the release kinetics. Samples were collected periodically for up to 120 minutes. The solution was replaced with 200 μl of fresh PBS every time the samples were taken. The samples were analyzed for protein content using a commercially available Micro-BCA assay kit and the concentration was adjusted for dilutions due to replacement of fresh PBS.

[2] = cited from earlier work
[3] = XPS of protein-loaded and protein-adsorbed nanotube surfaces; format: physicochemical; conditions: Adsorbed (control)
Protocol: To evaluate the differences in amounts of protein in nanotubes, X-ray photoelectron spectroscopy (XPS) analysis was carried out. XPS is a surface sensitive technique which can detect changes in surface composition for up to 2-20 atomic layers, depending on the material. Since the nanotubes are approximately 400 nm long, XPS can be used to verify the differences in surface concentrations due to different amounts of BSA and LYS loaded. The loaded nanotube surfaces along with adsorbed surfaces were mounted on an XPS stage. Three spots per sample were analyzed. The analysis was conducted on a SSI S-Probe Monochromatized XPS Spectrometer which uses an Al-Kα-X-ray source (1486.6 eV) with an Omni Focus III small area lens and multichannel detector. A concentric hemispherical analyzer (CHA) was operated in the constant analyzer transmission mode to measure the binding energies of emitted photoelectrons. The binding energy scale was calibrated by the Au4f7/2 peak at 83.9 eV, and the linearity was verified by the Cu3p1/2 and Cu2p3/2 peaks at 76.5 and 932.5 eV respectively. Survey spectra were collected from 0 to 1100 eV with pass energy of 160 eV, and high-resolution C1s spectra were collected for each element detected with pass energy of 10 eV. Survey and high resolution spectra were collected at a 65° take off angle, defined as the angle spanned by the electron path to the analyzer and the sample surface. All spectra were referenced by setting the hydrocarbon C1s peak to 285.0 eV to compensate for residual charging effects. Data for percent atomic composition and atomic ratios were calculated using the manufacturer supplied sensitivity factor.
To evaluate the differences in amounts of protein in nanotubes, X-ray photoelectron spectroscopy (XPS) analysis was carried out. […] LYS and BSA adsorbed surfaces were used as controls. There is a steady increase in N/C ratios with increasing amounts of protein loaded into the nanotubes. A more precise way to characterize protein on the surface is to determine the fraction of C—N and N—C═O peaks in overall C1s peak. The C—N and N—C═O peaks are characteristic of proteins which are at a shift of 0.8 eV and 1.8 eV respectively from the C—C peak (285 eV). Thus, high resolution C1s scans were taken and the peak fit analysis software provided with the XPS instrument was used to determine % of C—N and N—C═O in the overall C1s peak (Table 3). A convolution of Gaussian components was assumed for all the peaks. There is an increase in the intensity for the […], C—N and N—C═O peaks with increasing amounts of proteins loaded into the nanotubes.

**Q.** For “Bovine Serum Albumin: model protein, larger molecule with net negative charge, loaded into titania nanotubes”, which “time point at which all the protein is released from the nanotubes” value (shortened to “time point”) ([1]; 200 μg loaded) is on record?
**A.** 25

**Q.** What about the “time point” value ([1]; 400 μg loaded) of the same substance?
**A.** 50

**Q.** And the “time point” value ([1]; 800 μg loaded)?
**A.** 65

**Q.** And the “Net charge @ pH 7.0” value [2]?
**A.** −18

**Q.** And the “C—C fraction of overall C1s peak (high resolution XPS)” value [3]?
**A.** 0.81

**Q.** What about the “C—N fraction of overall C1s peak (high resolution XPS)” value [3] of the same substance?
**A.** 0.11

**Q.** And the “N/C ratio (XPS survey scan)” value [3]?
**A.** 0.123

**Q.** What about the “N—C═O fraction of overall C1s peak (high resolution XPS)” value [3] of the same substance?
**A.** 0.08

**Q.** What does the source list for “Lysozyme: model protein, smaller in size with net positive charge, loaded into titania nanotubes”?
**A.** release from the nanotubes compared to that of BSA (in words) [1]: much slower; time point at which all the protein is released from the nanotubes ([1]; 200 μg loaded): 36; time point at which all the protein is released from the nanotubes ([1]; 400 μg loaded): 85; time point at which all the protein is released from the nanotubes ([1]; 800 μg loaded): 110; Net charge @ pH 7.0 [2]: +7; C—C fraction of overall C1s peak (high resolution XPS) [3]: 0.73; C—N fraction of overall C1s peak (high resolution XPS) [3]: 0.22; N/C ratio (XPS survey scan) [3]: 0.215; N—C═O fraction of overall C1s peak (high resolution XPS) [3]: 0.03

From US10426871B2, “Nanostructure surface coated medical implants and methods of using the same” (The Regents of the University of California, priority 2007, dated 2019)
